{
  "source": "paper PMC8172861",
  "about": "“Structural and phylogenetic analyses of resistance to next-generation aminoglycosides conferred by AAC(2′) enzymes” (Scientific Reports, 2021)",
  "assay_in_all_cases": "purified protein",
  "format_in_all_cases": "biochemical, Providencia stuartii",
  "key": {"[1]": {"test_system": "NC[C@H]1O[C@H](O[C@H]2[C@H](O)[C@@H](O[C@H]3O[C@H](CO)[C@@H](O)[C@H](N)[C@H]3O)[C@H](N)C[C@@H]2N)[C@H](N)C[C@@H]1O", "conditions": "acetyl-CoA aminoglycoside active site; acetylated at N-2′"}, "[2]": {"test_system": "CN[C@@H]1[C@@H](O)[C@@H](O[C@@H]2[C@@H](O)[C@H](O[C@H]3OC(CNCCO)=CC[C@H]3N)[C@@H](N)C[C@H]2NC(=O)[C@@H](O)CCN)OC[C@]1(C)O", "conditions": "acetyl-CoA (S)-HABA tail hydrogen bonds with Glu149 and Asp176"}, "[3]": {"test_system": "CCN[C@@H]1C[C@H](N)[C@@H](O[C@H]2OC(CN)=CC[C@H]2N)[C@H](O)[C@H]1O[C@H]1OC[C@](C)(O)[C@H](NC)[C@H]1O", "conditions": "acetyl-CoA aminoglycoside active site; acetylated at N-2′"}},
  "data": [
    {"substance": "AAC(2′)-Ia (Providencia stuartii)", "values": [
      {"measurement": "Km", "setting": "[1]", "value": "14.5 ± 1.7", "unit": "µM"},
      {"measurement": "kcat", "setting": "[1]", "value": "5.04 ± 0.17", "unit": "s⁻¹"},
      {"measurement": "kcat/Km", "setting": "[1]", "value": "348000 ± 51000", "unit": "M⁻¹ s⁻¹"},
      {"measurement": "Km", "setting": "[2]", "value": "19.1 ± 2.5", "unit": "µM"},
      {"measurement": "kcat", "setting": "[2]", "value": "1.42 ± 0.05", "unit": "s⁻¹"},
      {"measurement": "kcat/Km", "setting": "[2]", "value": "74000 ± 12000", "unit": "M⁻¹ s⁻¹"},
      {"measurement": "Km", "setting": "[3]", "value": "19.9 ± 1.3", "unit": "µM"},
      {"measurement": "kcat", "setting": "[3]", "value": "6.05 ± 0.13", "unit": "s⁻¹"},
      {"measurement": "kcat/Km", "setting": "[3]", "value": "304000 ± 26000", "unit": "M⁻¹ s⁻¹"}
    ]}
  ]
}
